Target: the molecule itself
Assay: SEC-MALS; 800 micrograms of purified rBCAS0292 on S75 16/60 in 50 mM Tris-HCl, 150 mM NaCl, 5% glycerol, pH 7.5; DAWN MALS and Optilab rEX; reducing and oxidizing conditions

B1: recombinant BCAS0292 (Burkholderia negatively surface-charged regulatory protein 1), His-tagged (natural protein, Burkholderia cenocepacia, UniProt B4EQ58 1-179, looked up)
chain: MSGVRCDGLAIVDAVTLLSAYPDASRDADAPTVIDGRHIYVLRPGDAGQVGHNDNRLFAGLSPGDQLHLRETALALRAEVTVLFIRFALKDAGIVAPIEAEIRDAATPVPDGDDLLHPSCRPMKDHFWRSEVLAPGITTCTADFAVLDRDGAVSGYFRWETAIEIAGSRPDTKQPGVEP
notes: BCAS0292 protein (Bnr1), PixA family, Burkholderia cenocepacia; calculated molecular weight 19.2 kDa; no cleavage of the tag is told; also called rBCAS0292; rBnr1; source: E. coli BL21 Star (DE3), purified (lysis in 6 M guanidine-HCl, HisPur Ni-NTA, SEC)
stoichiometry N: 2

From article PMC9060813, “Protein with negative surface charge distribution, Bnr1, shows characteristics of a DNA‐mimic protein and may be involved in the adaptation of Burkholderia cenocepacia” (MicrobiologyOpen, 2022)
